These results are taken from patent US20160311908A1 (MERRIMACK PHARMACEUTICALS, published 2016).

The target in the assay is murine EGFR (murine, UniProt Q01279 25-647, limits assumed). Nature of the assay: not described (statement in the xenograft methods).

B1: P3X (antibody, V domains shown)
VH: QVQLVQSGAEVKKPGASVKVSCKASGYAFTSYGINWVRQAPGQGLEWMGWISAYNGNTYYAQKLRGRVTMTTDTSTSTAYMELRSLRSDDTAVYYCARDLGGYGSGSVPFDPWGQGTLVTVSS
VL: EIVMTQSPATLSVSPGERATLSCRASQSVSSNLAWYQQKPGQAPRLLIYGASTRATGIPARFSGSGSGTEFTLTISSLQSEDFAVYYCQDYRTWPRRVFGGGTKVEIK
notes: Fully human monoclonal antibody; Alexa Fluor 488-labelled in flow cytometry; also called P3X monoclonal antibody; third monoclonal antibody
As to B1, the binding result is “no binding”.
